Article PMC9138545, “Incorporation of Oxidized Phenylalanine Derivatives into Insulin Signaling Relevant Proteins May Link Oxidative Stress to Signaling Conditions Underlying Chronic Insulin Resistance” (Biomedicines, 2022)

Experiments:
[1] = target: C-terminal SH2 domain of PI3K regulatory subunit 1 (UniProt P27986); assay: FP
[2] = target: N-terminal SH2 domain of PI3K regulatory subunit 1 (UniProt P27986); assay: FP
N-terminal SH2 domain of PI3K regulatory subunit 1, sequence (P27986 321-433): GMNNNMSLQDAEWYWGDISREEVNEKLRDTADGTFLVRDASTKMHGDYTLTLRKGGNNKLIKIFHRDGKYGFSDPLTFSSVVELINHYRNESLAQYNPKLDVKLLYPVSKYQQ

C-terminal SH2 domain of PI3K regulatory subunit 1, sequence (P27986 614-724): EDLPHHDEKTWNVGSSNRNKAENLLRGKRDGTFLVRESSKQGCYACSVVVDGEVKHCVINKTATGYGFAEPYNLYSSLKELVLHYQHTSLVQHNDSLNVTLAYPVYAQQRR

Row | Substance | Kd [1] [µM] | Kd [2] [µM]
1 | phospho-ortho-Tyr IRS-1 peptide GRKGSGD(pY)MPMSPKV | > 40 | > 150
2 | phospho-meta-Tyr IRS-1 peptide GRKGSGD(pY)MPMSPKV | 6.5 | 53.2
